Assay results taken from US20050215503, “HIF oligonucleotide decoy molecules” (published 2005).

B1: decoy 811/812 (dsDNA)
DNA 1: ACGCTGAGTGCGTGCGGGAC
DNA 2: GTCCCGCACGCACTCAGCGT
B2: decoy 843/844 (dsDNA)
DNA 1: GTGCATACGTGGGCTCCA
DNA 2: TGGAGCCCACGTATGCAC
B3: decoy 999 (dsDNA)
DNA 1: CCATGGCACGTGCCTCAGG
DNA 2: CCTGAGGCACGTGCCATGG
B4: decoy 983 (dsDNA)
DNA 1: CCAGCGTACGTGTCTCAGG
DNA 2: CCTGAGACACGTACGCTGG
B5: decoy 879/880 (dsDNA)
DNA 1: GGCTGCTGCAGACGTGCAGGTC
DNA 2: GACCTGCACGTCTGCAGCAGCC
B6: decoy 817/818 (dsDNA)
DNA 1: CTGCCGACGTGCGCTCCGGAG
DNA 2: CTCCGGAGCGCACGTCGGCAG
B7: decoy 823/824 (dsDNA)
DNA 1: TGCATACGTGGGCTCCAACAG
DNA 2: CTGTTGGAGCCCACGTATGCA
B8: decoy 933 (dsDNA)
DNA 1: CCAGCGTATGTGCCTCAGG
DNA 2: CCTGAGGCACATACGCTGG
B9: decoy 887/888 (dsDNA)
DNA 1: GGCTGCACCGTACGTGCTGATC
DNA 2: GATCAGCACGTACGGTGCAGCC
B10: decoy 981 (dsDNA)
DNA 1: CCAGCGTACGTGGCTCAGG
DNA 2: CCTGAGCCACGTACGCTGG
B11: decoy 845/846 (dsDNA)
DNA 1: GAGCGTACGTGCCTCAGG
DNA 2: CCTGAGGCACGTACGCTC
B12: decoy 901 (dsDNA)
DNA 1: CACGTGCATACGTGGGCTCCA
DNA 2: TGGAGCCCACGTATGCACGTG
B13: decoy 851/852 (dsDNA)
DNA 1: CGGAGTACGTGACGGAGC
DNA 2: GCTCCGTCACGTACTCCG
B14: decoy 891/892 (dsDNA)
DNA 1: GGCTGCTGCATACGTGCAGGTC
DNA 2: GACCTGCACGTATGCAGCAGCC
B15: decoy 985 (dsDNA)
DNA 1: CCAGCGTACGTGACTCAGG
DNA 2: CCTGAGTCACGTACGCTGG
B16: decoy 849/850 (dsDNA)
DNA 1: GCCTACACGTGGGTTCCC
DNA 2: GGGAACCCACGTGTAGGC
B17: decoy 937 (dsDNA)
DNA 1: CCAGCGTAGGTGCCTCAGG
DNA 2: CCTGAGGCACCTACGCTGG
B18: decoy 853/854 (dsDNA)
DNA 1: TTGCTTACGTGCGCCCGG
DNA 2: CCGGGCGCACGTAAGCAA
B19: decoy 809/810 (dsDNA)
DNA 1: AGGGCCGGACGTGGGGCCCC
DNA 2: GGGGCCCCACGTCCGGCCCT
B20: decoy 935 (dsDNA)
DNA 1: CCAGCGTAAGTGCCTCAGG
DNA 2: CCTGAGGCACTTACGCTGG
B21: decoy 861/862 (dsDNA)
DNA 1: CTAATACGTGCCGCTG
DNA 2: CAGCGGCACGTATTAG
B22: decoy 997 (dsDNA)
DNA 1: CCGGGGCACGTGCCCCAGG
DNA 2: CCTGGGGCACGTGCCCCGG
B23: decoy 903 (dsDNA)
DNA 1: CACCTGCATACGTGGGCTCCA
DNA 2: TGGAGCCCACGTATGCAGGTG

target: HIF-1 (HIF-1alpha/HIF-1beta (ARNT) heterodimer) (Homo sapiens?, UniProt Q16665;P27540 Q16665:1-826,P27540:2-789); test: competition; TransAM; conditions: protein: extract; tags: none (endogenous, nuclear extract)
Description: To assess the relative affinities of oligonucleotides for a HIF-1α containing complex, the HIF-1 TransAM assay (Active Motif, Catalog # 47096) was utilized. The assay was performed according to manufacturer's instructions. Briefly, a double-stranded oligonucletide containing the hypoxia response element (HRE) was immobilized on a 96-well plate. A nuclear extract containing HIF-1α complexes was incubated and allowed to bind to the immobilized oligonucleotide. The unbound material was washed away and the bound HIF-1α detected using an antibody that specificially recognizes HIF-1α. The anti-HIF-1α antibody was detected by a secondary antibody labeled with horseradish peroxidase (HRP), and the amount of HRP in each well was measured using a calorimetric substrate reaction and read using a microplate spectrophotometer.
The ability of candidate decoy molecules to compete for binding of HIF-1α to the HRE element-immobilized on the plate were measured and compared to reveal relative binding affinities. Candidate decoys were added in increasing molar ratios (relative to the amount of oligo immobilized on the plate) to compete for binding to the HIF-1α containing complexes. The amounts of decoys added to the assay included 0.625, 1.25, 2.5, 5, 10 and 20 fold molar excess. A well containing a competing decoy able to bind HIF-1α with high affinity would give a lower absorbance reading as compared to a decoy with low affinity for HIF-1α. All potential decoys were then compared and ranked in order to assess their relative binding affinities.
The screen was conducted using different decoy concentrations. For each UV absorbance reading, normalization was done by calculating the ratio of absorbance readings of sample vs. wild type control. The bigger ratio represents less competition of binding with HIF-1α when compared with wild-type control. The smaller (smaller than 1.0 or close to 1.0) ratios represent better binding or better competition.

Chain of HIF-1 (HIF-1alpha/HIF-1beta (ARNT) heterodimer) (Q16665 whole entry, chain 1 of 2): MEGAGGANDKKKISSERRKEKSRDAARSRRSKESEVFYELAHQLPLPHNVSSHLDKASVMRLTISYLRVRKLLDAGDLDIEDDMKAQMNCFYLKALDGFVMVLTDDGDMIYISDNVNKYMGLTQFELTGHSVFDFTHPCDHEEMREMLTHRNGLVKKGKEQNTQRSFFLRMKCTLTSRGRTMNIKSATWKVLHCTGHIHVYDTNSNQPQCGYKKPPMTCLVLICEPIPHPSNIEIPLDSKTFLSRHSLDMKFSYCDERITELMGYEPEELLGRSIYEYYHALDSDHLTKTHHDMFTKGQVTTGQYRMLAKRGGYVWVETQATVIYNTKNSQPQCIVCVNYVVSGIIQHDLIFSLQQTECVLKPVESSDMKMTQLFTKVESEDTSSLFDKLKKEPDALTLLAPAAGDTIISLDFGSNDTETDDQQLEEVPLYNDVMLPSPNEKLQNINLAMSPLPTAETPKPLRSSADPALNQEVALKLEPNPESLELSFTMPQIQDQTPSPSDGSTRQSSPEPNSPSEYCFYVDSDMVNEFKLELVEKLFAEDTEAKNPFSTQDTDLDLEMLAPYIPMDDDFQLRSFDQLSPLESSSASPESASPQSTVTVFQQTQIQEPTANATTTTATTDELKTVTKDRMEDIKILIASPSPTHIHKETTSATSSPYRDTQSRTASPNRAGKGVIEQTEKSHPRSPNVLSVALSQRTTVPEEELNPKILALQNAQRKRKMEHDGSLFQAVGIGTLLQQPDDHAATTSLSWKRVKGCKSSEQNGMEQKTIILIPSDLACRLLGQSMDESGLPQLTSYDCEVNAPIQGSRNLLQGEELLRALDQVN
Chain of HIF-1 (HIF-1alpha/HIF-1beta (ARNT) heterodimer) (P27540 2-789, chain 2 of 2): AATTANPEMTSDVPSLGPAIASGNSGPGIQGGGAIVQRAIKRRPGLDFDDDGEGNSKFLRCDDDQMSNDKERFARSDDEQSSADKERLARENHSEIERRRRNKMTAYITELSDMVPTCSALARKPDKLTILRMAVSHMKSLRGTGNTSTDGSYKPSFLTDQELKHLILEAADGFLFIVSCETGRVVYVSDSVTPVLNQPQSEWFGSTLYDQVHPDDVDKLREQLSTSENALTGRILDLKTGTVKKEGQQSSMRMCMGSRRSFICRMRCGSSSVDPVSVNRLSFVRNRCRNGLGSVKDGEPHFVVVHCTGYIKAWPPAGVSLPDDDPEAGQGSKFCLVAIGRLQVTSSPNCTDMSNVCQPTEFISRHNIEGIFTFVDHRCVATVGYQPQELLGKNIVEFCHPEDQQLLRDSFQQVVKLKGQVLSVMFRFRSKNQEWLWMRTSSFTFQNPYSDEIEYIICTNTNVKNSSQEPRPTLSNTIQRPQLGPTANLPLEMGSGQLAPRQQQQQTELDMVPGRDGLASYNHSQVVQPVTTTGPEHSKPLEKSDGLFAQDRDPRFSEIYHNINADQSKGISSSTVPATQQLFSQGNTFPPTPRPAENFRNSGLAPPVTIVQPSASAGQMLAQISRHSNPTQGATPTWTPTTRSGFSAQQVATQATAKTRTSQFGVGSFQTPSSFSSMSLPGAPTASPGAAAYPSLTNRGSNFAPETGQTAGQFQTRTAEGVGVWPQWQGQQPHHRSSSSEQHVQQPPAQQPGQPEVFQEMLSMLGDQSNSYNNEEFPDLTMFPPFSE

Which binding signal does the source give for B1 here?
The binding signal was 3.9 ratio.

For B2, which binding signal is on record?
The binding signal was 1.7 ratio.

B3 was tested. Which binding signal did it give?
The binding signal was 1.3 ratio.

With B4 as the binder, how does the binding signal read?
Its binding signal is 1.3 ratio.

Which binding signal does the source give for B5 here?
The binding signal was 1.4 ratio.

For B6, which binding signal is on record?
Its binding signal is 4.81 ratio.

Which binding signal does the source give for B7 here?
The binding signal was 4.4 ratio.

Which binding signal does the source give for B8 here?
The binding signal was 3.47 ratio.

B9 was tested. Which binding signal did it give?
The binding signal was 1.89 ratio.

B10 was tested. Which binding signal did it give?
The binding signal was 1.7 ratio.

For B11, which binding signal is on record?
Its binding signal is 1.59 ratio.

Which binding signal does the source give for B12 here?
The binding signal was 1.6 ratio.

With B13 as the binder, how does the binding signal read?
Its binding signal is 1.41 ratio.

Which binding signal does the source give for B14 here?
The binding signal was 1.21 ratio.

With B15 as the binder, how does the binding signal read?
Its binding signal is 0.91 ratio.

B16 was tested. Which binding signal did it give?
Its binding signal is 2.66 ratio.

B17 was tested. Which binding signal did it give?
Its binding signal is 2.49 ratio.

How did the binding signal turn out when B18 was run?
Its binding signal is 1.73 ratio.

Which binding signal does the source give for B19 here?
The binding signal was 4.57 ratio.

For B20, which binding signal is on record?
The binding signal was 2.43 ratio.

With B21 as the binder, how does the binding signal read?
The binding signal was 2.18 ratio.

Which binding signal does the source give for B22 here?
Its binding signal is 1.28 ratio.

B23 was tested. Which binding signal did it give?
Its binding signal is 1.94 ratio.
